# Laboratory results taken from patent US20140221287A1 (AstraZeneca / MedImmune, published 2014).
# No end group written: not given here.
# T1: human amylin receptor 3 (AMY3) (human, UniProt P30988 25-474; O60896 24-148)
# T1 construct: whole, on cells; the cAMP assay used the whole cells; also called AMY3 receptor; human AMY3 receptor
# T1 sequence (looked up) 1: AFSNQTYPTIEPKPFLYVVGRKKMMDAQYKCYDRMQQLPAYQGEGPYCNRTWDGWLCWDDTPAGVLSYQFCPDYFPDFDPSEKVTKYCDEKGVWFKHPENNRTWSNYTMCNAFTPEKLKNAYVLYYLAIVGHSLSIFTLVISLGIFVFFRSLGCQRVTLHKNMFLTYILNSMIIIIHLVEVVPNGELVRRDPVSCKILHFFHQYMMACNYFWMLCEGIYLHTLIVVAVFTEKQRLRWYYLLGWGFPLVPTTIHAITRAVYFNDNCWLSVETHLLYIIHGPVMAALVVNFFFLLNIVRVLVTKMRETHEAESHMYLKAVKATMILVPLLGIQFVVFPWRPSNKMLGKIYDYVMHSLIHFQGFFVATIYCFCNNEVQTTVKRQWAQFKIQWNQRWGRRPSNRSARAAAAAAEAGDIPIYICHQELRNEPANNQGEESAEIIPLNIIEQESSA
# T1 sequence (looked up) 2: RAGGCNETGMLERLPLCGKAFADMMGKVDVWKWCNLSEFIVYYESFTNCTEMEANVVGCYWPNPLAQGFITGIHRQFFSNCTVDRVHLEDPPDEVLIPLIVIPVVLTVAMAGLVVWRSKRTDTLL
# Target: T2, amylin receptor in membranes prepared from the nucleus accumbens portion of the brain (rat) (rat)
# T2 construct: whole, on cells; Native tissue membranes
# Test: displacement of 125I-rat amylin from rat nucleus accumbens membranes
# Method: Plate was incubated for 1 hour at room temperature on a shaker. Plate was dried for 1.5 hours at 50° C., then overnight at room temperature.
# Receptor binding activity can be expressed, for example in Table 3, as an IC₅₀ value, calculated from the raw data using an iterative curve-fitting program using a 4-parameter logistic equation (PRISM®, GraphPAD Software, La Jolla, Calif.), as known in the art.
row,IC50,Binder
1,132 nM,"CNTATCATQRLANFLVHSSNNFGPK(Y‑shaped‑mPEG40KD)LPPTNVGSNTY-NH2 (ends and bridges not checked, also called Compound 31) [Cmpd 31, [K^26(Y-shaped-mPEG40KD)]-Cmpd 12]"
2,0.1 nM,"KCNTATCATQRLANFLVRSSNNLGPVLPPTNVGSNTY-NH2 (ends and bridges not checked, also called Compound 1) [Cmpd 1]"
3,39 nM,"CNTATCATQRLANFLVHSSNNFGPK(mPEG40KD)LPPTNVGSNTY-NH2 (ends and bridges not checked, also called Compound 29) [Cmpd 29, [K^26(mPEG40KD)]-Cmpd 12]"
4,131 nM,"CNTATCATQRLANFLVHSSK(mPEG40KD)NFGPILPPTNVGSNTY-NH2 (ends and bridges not checked, also called Compound 28) [Cmpd 28, [K^21(mPEG40KD)]-Cmpd 11]"
5,27 nM,"CNTATCATQRLANFLVHSSNNFGPILPK(mPEG40KD)TNVGSNTY-NH2 (ends and bridges not checked, also called Compound 36) [Cmpd 36, [K^29(mPEG40KD)]-Cmpd 18]"
6,79 nM,"CNTATCATQRLANFLVHSSNNFK(mPEG40KD)PILPPTNVGSNTY-NH2 (ends and bridges not checked, also called Compound 32) [Cmpd 32, [K^24(mPEG40KD)]-Cmpd 14]"
7,53 nM,"CNTATCATQRLANFLVHSSNNFGPILK(mPEG40KD)PTNVGSNTY-NH2 (ends and bridges not checked, also called Compound 35) [Cmpd 35, [K^28(mPEG40KD)]-Cmpd 17]"
8,51 nM,"CNTATCATQRLANFLVHSSNNFGPIK(mPEG40KD)PPTNVGSNTY-NH2 (ends and bridges not checked, also called Compound 34) [Cmpd 34, [K^27(mPEG40KD)]-Cmpd 16]"
9,31 nM,"CNTATCATQRLANFLVHSSNNFGK(mPEG40KD)ILPPTNVGSNTY-NH2 (ends and bridges not checked, also called Compound 33) [Cmpd 33, [K^25(mPEG40KD)]-Cmpd 15]"
10,61 nM,"CNTATCATQRLANFLVHSSNNFGPILPPTK(mPEG40KD)VGSNTY-NH2 (ends and bridges not checked, also called Compound 30) [Cmpd 30, [K^31(mPEG40KD)]-Cmpd 13]"

# Target: T1, human amylin receptor 3 (AMY3)
# Test: displacement of 125I-rat amylin from crude membranes of HEK293 cells expressing human AMY3 (hCalcR + RAMP3)
# Method: The crude membranes were incubated with 20 pM ¹²⁵I. (Perkin Elmer Cat#NEX4480) (2000 Ci/mmol) and increasing concentration of test peptide. […] The Unifilter® plates were washed several times using ice cold PBS using a MicroMate 96 Cell Harvester (Perkin Elmer).
# The potency (IC₅₀) of test peptide was determined by the analysis of a concentration-response curve using non-linear regression analysis fitted to a 4-parameter curve. Binding affinities were calculated using GraphPad Prism® software (GraphPad Software, Inc., San Diego, Calif.).
row,IC50,Binder
1,1130 nM,"CNTATCATQRLANFLVHSSNNFGPK(Y‑shaped‑mPEG40KD)LPPTNVGSNTY-NH2 (ends and bridges not checked, also called Compound 31) [Cmpd 31, [K^26(Y-shaped-mPEG40KD)]-Cmpd 12]"
2,60 nM,"CNTATCATQRLANFLVHSSNNFGPK(mPEG40KD)LPPTNVGSNTY-NH2 (ends and bridges not checked, also called Compound 29) [Cmpd 29, [K^26(mPEG40KD)]-Cmpd 12]"
3,77 nM,"CNTATCATQRLANFLVHSSNNFGPILPPTNVGK(mPEG40KD)NTY-NH2 (ends and bridges not checked, also called Compound 41) [Cmpd 41, [K^34(mPEG40KD)]-Cmpd 38]"
4,388 nM,"CNTATCATQRLANFLVHSSK(mPEG40KD)NFGPILPPTNVGSNTY-NH2 (ends and bridges not checked, also called Compound 28) [Cmpd 28, [K^21(mPEG40KD)]-Cmpd 11]"
5,47 nM,"CNTATCATQRLANFLVHSSNNFGPILPK(mPEG40KD)TNVGSNTY-NH2 (ends and bridges not checked, also called Compound 36) [Cmpd 36, [K^29(mPEG40KD)]-Cmpd 18]"
6,143 nM,"CNTATCATQRLANFLVHSSNNFGPILPPTNVGSK(mPEG40KD)TY-NH2 (ends and bridges not checked, also called Compound 42) [Cmpd 42, [K^35(mPEG40KD)]-Cmpd 39]"
7,111 nM,"CNTATCATQRLANFLVHSSNNFK(mPEG40KD)PILPPTNVGSNTY-NH2 (ends and bridges not checked, also called Compound 32) [Cmpd 32, [K^24(mPEG40KD)]-Cmpd 14]"
8,46 nM,"CNTATCATQRLANFLVHSSNNFGPILK(mPEG40KD)PTNVGSNTY-NH2 (ends and bridges not checked, also called Compound 35) [Cmpd 35, [K^28(mPEG40KD)]-Cmpd 17]"
9,87 nM,"CNTATCATQRLANFLVHSSNNFGPIK(mPEG40KD)PPTNVGSNTY-NH2 (ends and bridges not checked, also called Compound 34) [Cmpd 34, [K^27(mPEG40KD)]-Cmpd 16]"
10,48 nM,"CNTATCATQRLANFLVHSSNNFGK(mPEG40KD)ILPPTNVGSNTY-NH2 (ends and bridges not checked, also called Compound 33) [Cmpd 33, [K^25(mPEG40KD)]-Cmpd 15]"
11,238 nM,"CNTATCATQRLANFLVK(mPEG40KD)SSNNFGPILPPTNVGSNTY-NH2 (ends and bridges not checked, also called Compound 40) [Cmpd 40, [K^18(mPEG40KD)]-Cmpd 37]"
12,80 nM,"CNTATCATQRLANFLVHSSNNFGPILPPTK(mPEG40KD)VGSNTY-NH2 (ends and bridges not checked, also called Compound 30) [Cmpd 30, [K^31(mPEG40KD)]-Cmpd 13]"

# Target: T1, human amylin receptor 3 (AMY3)
# Test: cell-based or functional assay
row,"EC50 (nM), cAMP accumulation (HTRF)",Binder
1,2.56 nM,"CNTATCATQRLANFLVHSSNNFGPK(Y‑shaped‑mPEG40KD)LPPTNVGSNTY-NH2 (ends and bridges not checked, also called Compound 31) [Cmpd 31, [K^26(Y-shaped-mPEG40KD)]-Cmpd 12]"
2,0.114 nM,"CNTATCATQRLANFLVHSSNNFGPK(mPEG40KD)LPPTNVGSNTY-NH2 (ends and bridges not checked, also called Compound 29) [Cmpd 29, [K^26(mPEG40KD)]-Cmpd 12]"
3,0.034 nM,"CNTATCATQRLANFLVHSSNNFGPILPPTNVGK(mPEG40KD)NTY-NH2 (ends and bridges not checked, also called Compound 41) [Cmpd 41, [K^34(mPEG40KD)]-Cmpd 38]"
4,2.58 nM,"CNTATCATQRLANFLVHSSK(mPEG40KD)NFGPILPPTNVGSNTY-NH2 (ends and bridges not checked, also called Compound 28) [Cmpd 28, [K^21(mPEG40KD)]-Cmpd 11]"
5,0.159 nM,"CNTATCATQRLANFLVHSSNNFGPILPK(mPEG40KD)TNVGSNTY-NH2 (ends and bridges not checked, also called Compound 36) [Cmpd 36, [K^29(mPEG40KD)]-Cmpd 18]"
6,0.122 nM,"CNTATCATQRLANFLVHSSNNFGPILPPTNVGSK(mPEG40KD)TY-NH2 (ends and bridges not checked, also called Compound 42) [Cmpd 42, [K^35(mPEG40KD)]-Cmpd 39]"
7,0.598 nM,"CNTATCATQRLANFLVHSSNNFK(mPEG40KD)PILPPTNVGSNTY-NH2 (ends and bridges not checked, also called Compound 32) [Cmpd 32, [K^24(mPEG40KD)]-Cmpd 14]"
8,0.295 nM,"CNTATCATQRLANFLVHSSNNFGPILK(mPEG40KD)PTNVGSNTY-NH2 (ends and bridges not checked, also called Compound 35) [Cmpd 35, [K^28(mPEG40KD)]-Cmpd 17]"
9,0.296 nM,"CNTATCATQRLANFLVHSSNNFGPIK(mPEG40KD)PPTNVGSNTY-NH2 (ends and bridges not checked, also called Compound 34) [Cmpd 34, [K^27(mPEG40KD)]-Cmpd 16]"
10,0.126 nM,"CNTATCATQRLANFLVHSSNNFGK(mPEG40KD)ILPPTNVGSNTY-NH2 (ends and bridges not checked, also called Compound 33) [Cmpd 33, [K^25(mPEG40KD)]-Cmpd 15]"
11,0.85 nM,"CNTATCATQRLANFLVK(mPEG40KD)SSNNFGPILPPTNVGSNTY-NH2 (ends and bridges not checked, also called Compound 40) [Cmpd 40, [K^18(mPEG40KD)]-Cmpd 37]"
12,0.145 nM,"CNTATCATQRLANFLVHSSNNFGPILPPTK(mPEG40KD)VGSNTY-NH2 (ends and bridges not checked, also called Compound 30) [Cmpd 30, [K^31(mPEG40KD)]-Cmpd 13]"
